{"source": "the DeepSol protein solubility set"}
{"experiment": "soluble on expression in E. coli; label from the status in PepcDB or PDB records"}
{"sequence": "SFAAEITLTTPDNFALKADYYPSKNSVKPANNRAVLMLHQCNYNRTMYNNIGAQLAQQSIHALSLDFRGFGESISSEFNVADVRKLPQAERGKAWSNMSSHWPEDVQLAFDYLKEKVGNNGKVGIIGASCGGSQAINLAEKENISAISFFSSSQRDENIARYGKTLVDTPTLIIASEDDGRTFTSAQQLFSTAKNPSSKMISYKGSMHGYPLLASDKALETTIVTWFSNEL", "soluble on expression in E. coli": "not soluble"}
{"sequence": "MGSDKIHHHHHHMRESPLILPFDPAGIALDRSRGLSQQLYQALRARVLDGRLSSGTRLPATRDLAAMLALSRNSVVRAYDQLYAEGFIESRVGDGTYVSRLPKLSTQVSTGLSLGLSTGLSTFRQENTEDLSSGRHISAPLQRLKNNHLPPPRSGLPRAFRVGIPAFDLFPFDVWAKLQAGFWRNPSPAQLGYGDPAGEPALRDLIAAYLRRSRGLSCTAEQIVITSGAQQAISLCAQLLLQPGDGVAVENPGYRAAAHAFTLAGGRVCGVPVDEDGLDCGRLEQLTDCRLTYVTPAHQYPTGVTMSLARRLALLAWAERSDGWIIEDDYDGEYRYSGAPLAPLAALDRHGRVLYVGTFGKIAFPALRLGYLVLPSKLVQAFSQGRAIAVRHSEVSSQCVMAEFMARGHFQRHIRRMRKAALKRRDVLKAGWPVDIPGLGAMPEVAAGLHVKVNVDNFAREQELVAKAEAVEVEVTPLSNFWLADCEVPVDKRAGLVLGFAAVPEGEIAEALMKLRKVWRK", "soluble on expression in E. coli": "not soluble"}
{"sequence": "MSPLSGSLAPLNMKGLVKFQDVSFAYPNHPNVQVLQGLTFTLYPGKVTALVGPNGSGKSTVAALLQNLYQPTGGKVLLDGEPLVQYDHHYLHTQVAAVGQEPLLFGRSFRENIAYGLTRTPTMEEITAVAMESGAHDFISGFPQGYDTEVGETGNQLSGGQRQAVALARALIRKPRLLILDQATSALDAGNQLRVQRLLYESPEWASRTVLLITHQLSLAERAHHILFLKEGSVCEQGTHLQLMERGGCYRSMVEALAAPSDAAAHHHHHH", "soluble on expression in E. coli": "soluble"}
{"sequence": "MTTSIQRRISIVIPCLNDAVLLEQCLSSIVAQTLQPEEVIVVDNGSTDNSVEVANRMGARVVHEPLQGITWASAAGYNSARGDLIVRFDADCVIPPDHLSQVNAIWNRTEETPGRTIVALTGTGSFDIPGRMGEWLALCYLGAYRWSTKQALGHYPIFGSNSVISRQWWEDVKDQITLSETFVHEDMYFSFFVRPHETVWFEKNLKLIMHPRALMGVRQSFIRLVRGFYTIKIAWKREPVHQRLESRRDWTLEHHHHHH", "soluble on expression in E. coli": "not soluble"}
{"sequence": "MSPIPTTAETRKINEAAELMVNFWMSFACVEKEKEQMASIFEKMNGLFAAPSTTSTASLFGKYEGLFETTEVATEDFNTLWWNYPAQPSFPQLPVFVRSPIDSIKIYGAIQHDFGMSEDESVQYPSPISPSSDSSSETITHVSPGYLLQEVFLQRAVIEEQKKIIDGFHEIQKLNKKLAALHNNFTY", "soluble on expression in E. coli": "not soluble"}
{"sequence": "MGSSHHHHHHSSGLVPRGSHMGTASNGSTQQLPQTIIIGVRKGGTRALLEMLSLHPDVAAAENEVHFFDWEEHYSQGLGWYLTQMPFSSPHQLTVEKTPAYFTSPKVPERIHSMNPTIRLLLILRDPSERVLSDYTQVLYNHLQKHKPYPPIEDLLMRDGRLNLDYKALNRSLYHAHMLNWLRFFPLGHIHIVDGDRLIRDPFPEIQKVERFLKLSPQINASNFYFNKTKGFYCLRDSGKDRCLHESKGRAHPQVDPKLLDKLHEYFHEPNKKFFKLVGRTFDWH", "soluble on expression in E. coli": "soluble"}
{"sequence": "MMPFEAVIGLEVHVQLNTKTKIFCSCSTSFGESPNSNTCPVCLGLPGALPVLNKEVVKKAIQLGTAIEANINQYSIFARKNYFYPDLPKAYQISQFEVPIVSDGKLEIDTKEGAKIVRIERAHMEEDAGKNIHEGSYSLVDLNRACTPLLEIVSKPDMRNSEEAIAYLKKLHAIVRFIGISDANMQEGNFRCDANVSIRPKGDEKLYTRVEIKNLNSFRFIAKAIEYEIERQSAAWENGRYNEEVVQETRLFDTHKGITLSMRNKEESADYRYFKDPDLYPVFIDEKLLKEAQKINELPSAKKIRYMKDFNLKEDDANLLVSDPLLAQYFESMLHLGVKAKTSVTWLCVELLGRLKAEITLENCGVSTHMLGALAKRIDEGKISGKSAKDVLDKLLEEQGGDVDALIEQMGLSQVNDTEAIVKVIEEVLKNNADKVLEYKSGKDKLFGFFVGQAMKNLKGANPSVVNAILKEKLG", "soluble on expression in E. coli": "not soluble"}
{"sequence": "MGSDKIHHHHHHMKAVLVEQPGSSEQLKVVEREIPKIKEGWSLVKIKGFGINRSEIFTRKGYSPSVVFPRVLGIECVGIIEETSDKNHFFHGQKVVSIMGEMGRAFDGSYAEYVLLPNEQIYPIKTNLTWDKLAAAPESYYTAYGAYKNLKLKKQDLVLVRAGASGVALAFLNLLKASLPEIKVTASVRSLAKKQQLLDSGYDEVIIDRDSCLQTKQKFDKVLDLIGPACIDDTLNHVADGGIICLVGLLGGQWTLDNFDPIMALQNNIYLTTFYSGNINLNKLQELFDFIAKYAVPIKVEKIFTIDHIKEAHDYLESPQAFGKVIVLNGVA", "soluble on expression in E. coli": "not soluble"}
{"sequence": "MSLKFTAIDFETANEKRNSPCSIGIVVVKDGHVVEKSHHLIRPKEMRFMPINIGIHGIRPAMVEKEPEFDKVWEKIKHYFDDTLVIAHNASFDISVLRKSAELYNIELPEFNYICTMKLARNFYKGIENAKLNTVNNFLGYEFRHHDALYDALACSNIMLSISKELKCKDITEISKLLGEGHHHHHH", "soluble on expression in E. coli": "not soluble"}
{"sequence": "MASQEFQGFLDSSLLNEEDCRQMIYRSEREHDARMVGVNVDQHFTSQYRKVLTTWMFCVCKDLRQDNNVFPLAVALLDELFLSTRIDRENYQSTAAVALHIAGKVRAYMPIKATQLAYLCGGATTADKLLTLEVKSLDTLSWVADRCLSTDLICYILHIMHAPREDYLNIYNLCRPKIFCALCDGRSAMKRPVLITLACMHLTMNQKYDYYENRIDGVCKSLYITKEELHQCCDLVDIAIVSFDENYFKINA", "soluble on expression in E. coli": "soluble"}
{"sequence": "MDADDLRQLAINVSMDDIAASRDATKRLQQLFTPQQIVAMLKDAPSTHALRVLVGEMEAVGNPDVFHLIGGVLEDVFTQPSRESKAVLFAPAAQFLVEFIVRSAAAADTAVASSMSKALHRLIAIAGDSTEAAAFLGPCLDANFHNEQVLRLFDCDAVESAENKTVCGFLEQWTSLLPFMFEATLDAFENDPLLQANYTIASGVACRTVDVPSALRQRTMDILRAKDDSLCFAYVCRFWSIALLRHEANGQRDAAACVSTVMPAAEASERDERATEAIFDLLGSAASTQAGWDAVTRQLPCKTLQVRLSSTSPSLRLSTLNLMLCMLTSPHMNVSFFTKDLLLDAWQTRTSPDDMVRLALWRVANAALLQESLNRMLGAACASFLSSGAHEENVAVRSLKLTAAERLLRHSTLPENVKARLSQVVERGLYPAGSSGVSLIAKD", "soluble on expression in E. coli": "not soluble"}
{"sequence": "MFSGIKGPNPSDLKGPELRILIVHARWNLQAIEPLVKGAVETMIEKHDVKLENIDIESVPGSWELPQGIRASIARNTYDAVIGIGVLIKGSTMHFEYISEAVVHGLMRVGLDSGVPVIFGLLTVLNEEQALYRAGLNGGHNHGNDWGSAAVEMGLKALY", "soluble on expression in E. coli": "soluble"}
{"sequence": "VGRATQSAKELDVKIKNVIRNVHILLKQISGTDGEGNNVPSGDFSREWAEAQRMMRELRNRNFGKHLREAEADKRESQLLLNRIRTWQKTHQGENNGLANSIRDSLNEYEAKLSDLRARLQEAAAQAKQANGLNQENERALGAIQRQVKEINSLQSDFTKYLTTADSSLLQTNIALQLMEKSQKEYEKLAASLNEARQELSDKVRELSRSAGKTSLVEEAEKHARSLQELAKQLEEIKRNASGDELVRCAVDAATAYENILNAIKAAEDAANRAASASESALQTVIKEDLPRKAKTLSSNSDKLLNEAKMTQKKLKQEVSPALNNLQQTLNIVTVQKEVIDTNLTTLRDGLHGIQRGDIDAMISSAKSMVRKANDITDEVLDGLNPIQTDVERIKDTYGRTQNEDFKKALTDADNSVNKLTNKLPDLWRKIESINQQLLPLGNISDNMDRIRELIQQARDAASKVAVPMRFNGKSGVEVRLPNDLEDLKGYTSLSLFLQRPNSRENGGTENMFVMYLGNKDASRDYIGMAVVDGQLTCVYNLGDREAELQVDQILTKSETKEAVMDRVKFQRIYQFARLNYTKGATSSKPETPGVYDMDGRNSNTLLNLDPENVVFYVGGYPPDFKLPSRLSFPPYKGCIELDDLNENVLSLYNFKKTFNLNTTEVEPCRRRKEESDKNYFEGTGYARVPTQPHAPIPTFGQTIQTTVDRGLLFFAENGDRFISLNIEDGKLMVRYKLNSELPKERGVGDAINNGRDHSIQIKIGKLQKRMWINVDVQNTIIDGEVFDFSTYYLGGIPIAIRERFNISTPAFRGCMKNLKKTSGVVRLNDTVGVTKKCSEDWKLVRSASFSRGGQLSFTDLGLPPTDHLQASFGFQTFQPSGILLDHQTWTRNLQVTLEDGYIELSTSDSGGPIFKSPQTYMDGLLHYVSVISDNSGLRLLIDDQLLRNSKRLKHISSSRQSLRLGGSNFEGCISNVFVQRLSLSPEVLDLTSNSLKRDVSLGGCSLNKPPFLMLLKGSTRFNKTKTFRINQLLQDTPVASPRSVKVWQDACSPLPKTQANHGALQFGDIPTSHLLFKLPQELLKPRSQFAVDMQTTSSRGLVFHTGTKNSFMALYLSKGRLVFALGTDGKKLRIKSKEKCNDGKWHTVVFGHDGEKGRLVVDGLRAREGSLPGNSTISIRAPVYLGSPPSGKPKSLPTNSFVGCLKNFQLDSKPLYTPSSSFGVSSCLGGPLEKGIYFSEEGGHVVLAHSVLLGPEFKLVFSIRPRSLTGILIHIGSQPGKHLCVYLEAGKVTASMDSGAGGTSTSVTPKQSLCDGQWHSVAVTIKQHILHLELDTDSSYTAGQIPFPPASTQEPLHLGGAPANLTTLRIPVWKSFFGCLRNIHVNHIPVPVTEALEVQGPVSLNGCPDQ", "soluble on expression in E. coli": "soluble"}
{"sequence": "MVPSNAESQSVVVIGAGIGGLTTAALLAQQGYRVKVYEQAAIVGGCASTFRRRGFIFDVGATQVAGLEPGGIHHRIFRQLQVDLPEATLCDPACAVFLPGEKQPINVWHDPERWQREREQQFPGSGRFWQLLQTLFQISWRFQGRDPVLPPRSMWDLGQLLGALRPDTLLTAPFVPLTVGDTLRLLGLGSDQRLKTFLDLQLKLYSQVGADETALLYAATALSVSQGPQGLWHLQGSMQTLGDRLVEALKNHGGELFCSQRVEQIHCGQGYVEGVTVRDVRSGEVRQEKAQQVVANLTVQNLLQALDQPLPGYQKRVTNLPSGSGAFVIYLGVKEDAIPPDCAPHLQFLYDHQGPIGENNSLFVSVSKPGDGRAPRGCRTVIASSFTDVAPWWNASREQYQALKESYTTTAISRLGEYFNLDESTIVHQESATPRTFDRYTARDQGIVGGVGQRLTTFGPFGFAPRTPIRNLWLVGDSVHPGEGTAGVSYSALTIARQICASGATNSLEHHHHHH", "soluble on expression in E. coli": "not soluble"}
{"sequence": "MLSEQKEIAMQVSGMTCAACAARIEKGLKRMPGVTDANVNLATETVNVIYDPAETGTAAIQEKIEKLGYHVVTEKAEFDIEGMTCAACANRIEKRLNKIEGVANAPVNFALETVTVEYNPKEASVSDLKEAVDKLGYKLKLKGEQDSIEGR", "soluble on expression in E. coli": "soluble"}
{"sequence": "KYHHLTLTQRAGSAVPTSNKVLDVKGQYLESGLSAPLIAEMRKHLKAGNQVMLFLNRRGFSPALMCHECGWIAECKRCDAYYTFHQYSNEIRCHHCGSQQPVIHQCQGC", "soluble on expression in E. coli": "not soluble"}
{"sequence": "MRQDDLKLLGKIVTTHGIRGQLKVASFSGEFDTILSLETVVLKGKDGRMETFPVARATVHHDRVLLSLTPFTNINEVLHLISAVSYAHRDQFPPLEEGEYYWCDLIGLQVVTAAGTVIGRLDSILPTESHDVYVVRGADREYLIPAVEDVVVQVDLEAGTMTVSPPEGLLDLLEHHHHHH", "soluble on expression in E. coli": "soluble"}
{"sequence": "MEGPLTIPVLDKGFVRLVDQMGDDRAIVQAARVSYGEGTKTVREDAALIDYLMRHRHTSPFEMVVFKFHVKAPIFVARQWFRHRTASVNEISGRYSILKEEFYEPEAFRKQAKRNKQASEGALLDEEALALLRKVQQEAYGAYRALLEKGVAREMARMVLPLNLYTEFYWKQDLHNLFHFLKLRLAPEAQWEIRQYARAIAEIVKERVPLAWAAFEEHLLEGAFLSRTELRALRGLLTPEVYEKALSSLGLGGSRLKEALEKVFGPGEAL", "soluble on expression in E. coli": "soluble"}
